The record followed here is patent publication US20260216242A1 (ALMAC DISCOVERY, published 2026).

As usually defined, the Kd is the free concentration of one partner at which half of the binding sites on the other are occupied at equilibrium, for simple one-to-one binding. As usually defined, the koff is the rate constant with which the complex falls apart. A higher koff goes with fast dissociation. In general, kon refers to a measure of how fast the partners come together. High values mean fast association, low ones slow association.

Changes are numbered by the printed parent chain.

To fix the notation:
T1: ALPI His homodimer (human, UniProt P09923 20-503)
T1 construct: Whole entry with His tag; used in ELISA and BLI; also called hALPI
T1 sequence: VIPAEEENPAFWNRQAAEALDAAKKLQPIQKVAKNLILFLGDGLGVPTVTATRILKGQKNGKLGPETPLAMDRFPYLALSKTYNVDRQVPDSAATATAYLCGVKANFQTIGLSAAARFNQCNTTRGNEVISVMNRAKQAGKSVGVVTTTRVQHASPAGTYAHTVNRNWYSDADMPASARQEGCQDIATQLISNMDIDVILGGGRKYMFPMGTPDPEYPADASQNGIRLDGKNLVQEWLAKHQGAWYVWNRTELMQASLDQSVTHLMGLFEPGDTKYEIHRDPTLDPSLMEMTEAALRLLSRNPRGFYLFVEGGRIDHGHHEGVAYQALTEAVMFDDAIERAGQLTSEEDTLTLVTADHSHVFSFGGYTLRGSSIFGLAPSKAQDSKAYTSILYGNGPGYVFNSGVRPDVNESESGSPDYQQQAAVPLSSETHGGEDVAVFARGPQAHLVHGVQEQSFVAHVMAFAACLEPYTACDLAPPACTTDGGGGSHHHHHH

T2: Human ALPP (leucine zipper) (human)
T2 construct: Whole entry: ALPP fused with a cysteine stabilised leucine zipper and His tag; also called hALPP
T2 chain: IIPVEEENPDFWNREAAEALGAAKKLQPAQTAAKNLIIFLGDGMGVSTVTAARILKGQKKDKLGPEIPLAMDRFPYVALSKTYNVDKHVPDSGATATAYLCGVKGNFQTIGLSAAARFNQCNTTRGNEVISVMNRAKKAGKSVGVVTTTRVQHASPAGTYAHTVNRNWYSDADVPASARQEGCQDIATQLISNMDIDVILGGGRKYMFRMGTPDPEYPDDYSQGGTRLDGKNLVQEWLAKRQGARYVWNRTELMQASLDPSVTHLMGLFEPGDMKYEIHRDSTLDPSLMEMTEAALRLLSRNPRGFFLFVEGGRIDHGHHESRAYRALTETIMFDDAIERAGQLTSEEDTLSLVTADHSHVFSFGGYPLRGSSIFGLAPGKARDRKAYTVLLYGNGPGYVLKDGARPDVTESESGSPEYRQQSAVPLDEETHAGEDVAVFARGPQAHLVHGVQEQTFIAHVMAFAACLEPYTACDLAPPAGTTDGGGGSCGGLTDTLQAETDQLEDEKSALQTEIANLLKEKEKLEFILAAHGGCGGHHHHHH

T3: Human ALPL (leucine zipper) (human)
T3 construct: Whole entry: fused with a cysteine stabilised leucine zipper and His tag; also called hALPL
T3 chain: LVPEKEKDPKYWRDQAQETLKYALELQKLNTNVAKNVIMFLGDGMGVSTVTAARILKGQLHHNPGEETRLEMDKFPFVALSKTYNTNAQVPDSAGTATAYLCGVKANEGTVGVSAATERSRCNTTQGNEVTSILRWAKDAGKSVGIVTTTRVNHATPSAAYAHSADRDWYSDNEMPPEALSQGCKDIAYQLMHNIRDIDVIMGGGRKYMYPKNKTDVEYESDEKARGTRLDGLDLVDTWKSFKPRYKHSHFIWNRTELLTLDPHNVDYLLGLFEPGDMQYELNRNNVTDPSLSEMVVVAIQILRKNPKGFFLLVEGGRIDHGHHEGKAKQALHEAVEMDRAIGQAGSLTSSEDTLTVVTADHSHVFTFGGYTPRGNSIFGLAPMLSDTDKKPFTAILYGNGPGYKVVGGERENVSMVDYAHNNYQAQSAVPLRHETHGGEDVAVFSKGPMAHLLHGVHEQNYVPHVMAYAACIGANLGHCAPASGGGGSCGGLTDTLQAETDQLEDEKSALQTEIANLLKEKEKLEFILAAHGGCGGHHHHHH

B1: F12 (VHH, not shown: small tags and cut ends)
VHH: QVQLVESGGGLVEAGGSLRLSCAVSGSALSDYNIGWFRQAPGKEREFVARKTWDGSSTKYDDSVKGRFTVSIDNAKNTAYLQMNSLKTEDTAVYYCAAGRYSRVRGWEYDYWGQRTQVTVSS
B2: B09 (VHH, not shown: small tags and cut ends)
VHH: QVQLVESGGGSVQAGGSLRLSCAASGPSLSHYAMGWFRQAPGKEREFVAGISWGGGRTSYTDSVKGRFTISRDNAKNTVYLQMNNLKPEDTGVYYCAGRYGRGRNVEYEYDYWGQGTQVTVSS
B3: E11 (VHH, not shown: small tags and cut ends)
VHH: B2 VHH with H31N, Y32F, A40P
B4: H10 (VHH, not shown: small tags and cut ends)
VHH: B2 VHH with A14T, H31N, S59N, T61L, V79M, N85S, T91A, G92A, N105D
B5: H09 (VHH, not shown: small tags and cut ends)
VHH: B2 VHH with A14T, H31N, S59N, T61L, V79M, N85S, G92A, N105D
B6: F09 (VHH, not shown: small tags and cut ends)
VHH: B2 VHH with H31N, Y60C

For one experiment, the target named is T4, ALPP CysHis (human, UniProt P05187 23-502).
T4 construct: Whole entry: engineered human ALPP with an introduced cysteine and a His tag; homodimer; also called engineered ALPP homodimer; hALPP (ELISA)
The experiment can be described thus: ELISA, antigen coated. The source says:
(§1) ELISA was used to test the binding and specificity of the VHHs. […] Anti-Llama—HRP antibody was used for detection.
(In general: ELISA stands for enzyme-linked immunosorbent assay.)
Turning to B1, the binding result is reported as “binds”.

For B2, the binding result was “binds”.

For the molecule B3, the binding result is “binds”.

As to B4, the binding result is “binds”.

As for B5, the binding result is recorded as “binds”.

On to B6, for which the binding result was “binds”.

The target in the next experiment is T1, ALPI His homodimer. The experiment can be described thus: ELISA, antigen coated.
Description: as §1
As for B1, the binding result is “no binding (tested: 500 ng VHH)”.

As for B2, the binding result is “no binding (tested: 500 ng VHH)”.

On to B3, for which the binding result is listed as “no binding (tested: 500 ng VHH)”.

Take B4: the binding result is reported as “no binding (tested: 500 ng VHH)”.

Turning to B5, the binding result is reported as “no binding (tested: 500 ng VHH)”.

In the case of B6, the binding result is “no binding (tested: 500 ng VHH)”.

A further experiment deals with T2, Human ALPP (leucine zipper). The experiment can be described thus: BLI, antigen immobilised. The method, then:
(§2) Binding kinetics were determined using the Biolayer Interferometry (BLI) Octet K2 system (Sartorius). […] All assays were conducted in PBS with a plate temperature of 25° C. Ka (M⁻¹s⁻¹), Kd (s⁻¹) and KD (nM) values were determined using Octet Data Analysis High Throughput software (ForteBio) for Biolayer Interferometry.
In general terms: BLI is a label-free optical method that tracks binding on a fibre tip over time.
B1 gave a Kd below 0.01 nM, a koff below 1e-07 s⁻¹ and a kon of 38600 M⁻¹ s⁻¹.

In turn, B2 gave a dissociation constant (Kd) below 0.01 nM, a koff below 1e-07 s⁻¹ and a kon of 237000 M⁻¹ s⁻¹.

For B3, the on-rate constant (kon) came out at 149000 M⁻¹ s⁻¹.

As to B4, binding was put at a Kd of 0.19 nM, the off-rate (koff) was 8.5e-06 s⁻¹ and the on-rate (kon) was determined as 45900 M⁻¹ s⁻¹.

Turning to B5, the Kd is below 0.01 nM, the koff was below 1e-07 s⁻¹ and the on-rate (kon) came to 58600 M⁻¹ s⁻¹.

With B6, the dissociation constant (Kd) was below 0.01 nM, the koff was below 1e-07 s⁻¹ and the kon was determined as 40600 M⁻¹ s⁻¹.

Another experiment has as its target T3, Human ALPL (leucine zipper). The experiment can be described thus: BLI, antigen immobilised. The procedure: as §2
Consider B1, for which the binding result is “no binding”.

Consider B2, for which the binding result is reported as “no binding”.

As for B3, the binding result is given as “no binding”.

For the molecule B4, the binding result is reported as “no binding”.

In the case of B5, the binding result is listed as “no binding”.

As to B6, the binding result was “no binding”.
